Patent publication US20250320309A1 (SHENGHE CHINA BIOPHARMACEUTICAL, published 2025)

B1: 1-D2-IgG4 (bispecific antibody)
heavy: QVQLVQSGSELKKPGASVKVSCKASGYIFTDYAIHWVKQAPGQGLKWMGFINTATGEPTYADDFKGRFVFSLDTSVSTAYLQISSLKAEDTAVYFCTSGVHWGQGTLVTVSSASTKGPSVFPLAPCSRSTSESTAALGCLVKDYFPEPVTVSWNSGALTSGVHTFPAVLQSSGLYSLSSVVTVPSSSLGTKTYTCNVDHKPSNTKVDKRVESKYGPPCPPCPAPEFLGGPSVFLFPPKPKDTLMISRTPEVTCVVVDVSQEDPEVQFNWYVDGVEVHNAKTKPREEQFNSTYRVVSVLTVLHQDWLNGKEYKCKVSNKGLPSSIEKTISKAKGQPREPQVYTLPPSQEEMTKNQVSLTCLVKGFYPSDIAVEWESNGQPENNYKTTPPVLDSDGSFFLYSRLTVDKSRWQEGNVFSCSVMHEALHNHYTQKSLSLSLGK
light: DIQMTQSPSTLSASVGDRVTITCSASSSVSSMHWYQQKPGKAPKLLIYSTSNLASGVPSRFSGSGSGTEYTLTISSLQPDDFATYYCHHWTSYMYTFGGGTKVEIKRTVAAPSVFIFPPSDEQLKSGTASVVCLLNNFYPREAKVQWKVDNALQSGNSQESVTEQDSKDSTYSLSSTLTLSKADYEKHKVYACEVTHQGLSSPVTKSFNRGECGGGGSGGGGSQVQLQESGPGLVKPSETLSLTCTVSGSSLTSYGVHWVRQPPGKCLEGLGVIWPGGSTNYNSALMSRVTISKDNSKSQVSLKMSSLTAADTAVYYCARVTGTWYFDVWGQGTTVTVSSGGGGSGGGGSGGGGSDIQMTQSPSSLSASLGDRVTISCSASQGISNYLNWYQQKPDGTVKLLIYYTSTLHSGVPSRFSGSGSGTDYTLTISSLQPEDIATYYCQQYSKLPWTFGCGTKLEIK
B2: 1-C2-IgG1 (bispecific antibody)
heavy: not shown
light: DIQMTQSPSTLSASVGDRVTITCSASSSVSSMHWYQQKPGKAPKLLIYSTSNLASGVPSRFSGSGSGTEYTLTISSLQPDDFATYYCHHWTSYMYTFGGGTKVEIKRTVAAPSVFIFPPSDEQLKSGTASVVCLLNNFYPREAKVQWKVDNALQSGNSQESVTEQDSKDSTYSLSSTLTLSKADYEKHKVYACEVTHQGLSSPVTKSFNRGEC

Biological target: T1, human CD24 (human, UniProt P25063 27-59)
T1 chain (looked up): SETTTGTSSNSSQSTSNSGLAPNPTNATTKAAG
Assay: cell-based or functional assay

Binder	ADCP: phagocytosis of CD24-SKOV3 cells by macrophages, EC50 [pM]	ADCP: phagocytosis of MCF-7 cells by macrophages, EC50 [pM]
B1	4	2
B2	13	4
